Consider five molecules from paper PMC4408887 (Nature chemistry, 2015).

Positions of bridges follow the written chain, without caps; N, C: chain ends. Non-standard residues stand in square brackets, D forms with d. Residues, ends and D or L forms follow the SMILES beside them. Triazole bridges read from a SMILES are 1,4-linked. Chains are numbered I, II in the order given. No end group written: not given here. *: point of attachment. Biotin = O=C1N[C@H]2[C@H](CS[C@H]2CCCCC(=O)*)N1; Lys(N3) = [N-]=[N+]=NCCCC[C@H](N)C(=O)O; PEG5 = NCCOCCOCCOCCOCCOCCC(=O)O; Pra = C#CC[C@H](N)C(=O)O Where only a bound is given, the exact number is not on record here.

Assay [1] deals with label-modified yleaf peptide used in fluorescence polarization. The assay is described as follows: fluorescence polarisation. For orientation: In fluorescence polarisation assays a small probe gives low polarisation when free and higher when bound to something large.
Assay [2] deals with WT 33-mer PH Domain epitope of Akt1 (Homo sapiens, UniProt P31749). The assay is described as follows: Fluorescence polarization binding to WT 33-mer epitope.
Assay [3] has as its system E17K versus WT PH Domain of Akt1 - PIP3 interaction. The assay is described as follows: PIP3 agarose inhibition, E17K relative to WT. Conditions: triligand 0.1-1000 eq. The assay is classed as biochemical.
Assay [4] has as its system Akt1^E17K relative to Akt2^E17K. The assay is described as follows: Point ELISA, Akt1 and Akt2 isoforms. The assay is classed as binding. The settings on record: 100 nM protein, triplicate.
In another assay the test system is WT or E17K GST-Akt1. The assay is described as follows: Point ELISA in human serum. In kind it is binding. Conditions: 150 nM protein, 0%, 1% and 2% human serum in TBS.
In another assay the target is full length Akt1 (WT) (UniProt P31749 1-480). The assay is described as follows: fluorescence polarisation.
The target in the next assay is full length Akt1^E17K (UniProt P31749 1-480, E17K). The assay is described as follows: fluorescence polarisation.

Molecule “E17K mutant 6-His-tagged 33-mer PH Domain peptide fragment of Akt1 (from UniProt P31749 1-33)” returned a Kd in assay [1] of 328 nM.
Molecule `CC(C)C[C@@H](NC(=O)[C@H](N)Cc1ccc(O)cc1)C(=O)N[C@H](CCC(=O)O)C(=O)N[C@H](C)C(=O)N[C@H](Cc1ccccc1)C(N)=O` [yleaf] (H-[dY][dL][dE][dA][dF]-NH2) displayed a dissociation constant (Kd) in assay [2] of 2800 ± 840 nM.
In the case of `CC[C@@H](C)[C@@H](NC(=O)CCOCCOCCOCCOCCOCCNC(=O)CCCC[C@@H]1SC[C@@H]2NC(=O)N[C@@H]21)C(=O)N[C@@H](C(=O)N[C@H](CC(=O)O)C(=O)N[C@H](C)C(=O)N[C@H](CCC(=O)O)C(=O)N[C@@H](Cc1cn(CCCC[C@H](NC(C)=O)C(=O)N[C@H](Cc2ccc(O)cc2)C(=O)N[C@H](CC(C)C)C(=O)N[C@H](CCC(=O)O)C(=O)N[C@H](C)C(=O)N[C@H](Cc2ccccc2)C(=O)N[C@@H](Cc2cn(CCCC[C@H](NC(C)=O)C(=O)N[C@H](Cc3ccc(O)cc3)C(=O)N[C@H](CCCCN)C(=O)N[C@H](CO)C(=O)N[C@H](Cc3ccc(O)cc3)C(N)=O)nn2)C(=O)O)nn1)C(=O)O)C(C)C` [triligand] (I: Ac-[Lys(N3)][dY][dL][dE][dA][dF][Pra]-OH / II: {Biotin-PEG5}-[dI][dV][dD][dA][dE][Pra]-OH / III: Ac-[Lys(N3)][dY][dK][dS][dY]-NH2; triazole I:1-II:6, I:7-III:1; C-terminus assumed), the “selective inhibition of E17K relative to WT” value in assay [3] is “significant selective inhibition of the E17K mutant relative to the WT”. The “preference for Akt1^E17K relative to Akt2^E17K” value in assay [4] is on record as “slight preference for Akt1^E17K relative to the Akt2^E17K”. In addition, the “reduction in binding efficiency in human serum” value in the assay on WT or E17K GST-Akt1 was “very little reduction in binding efficiency”.
“WT 6-His-tagged 33-mer PH Domain peptide fragment of Akt1 (from UniProt P31749 1-33)” gave a dissociation constant (Kd) in assay [1] of 2800 nM.
[dY][dL][dE][dA][dF] (also: label-modified, label not given here) [label-modified yleaf peptide used in fluorescence polarization]: the results for the dissociation constant (Kd) with full length Akt1 (WT) and in the assay with full length Akt1^E17K were greater than 1000 nM and 54 ± 7 nM, respectively.

Usually Kd stands for a measure of binding affinity in units of concentration.
